Results reported in article PMC2883556 (PLoS ONE, 2010).

B1: monoclonal antibody MCS6-27 (antibody, V domains shown)
VH: EVQLEQSGPGLVKPSQSLSLTCTVTGYSITNDYAWNWIRQFPGNKLEWMGYINYSGTTSYNPSLKSRISITRDTSKNQFFLQFNSVTTEDTATYYCARSPLAYWGQGTLVTVSA
VL: DIVLTQTPASLSVSVGETVTITCRASENIYSHLAWYQQKQGKSPQLLVYTATNLADGVPSRFSGRGSGTQYSLKINSLQSEDFGIYFCQHFWGTPWTFGGGTKLEIK
notes: also called mAb MCS6-27
B2: monoclonal antibody F29-40 (antibody, V domains shown)
VH: EVQLEESGPELVKPGTSVKISCKASGYSFTGYIINWVMQSQGKTPEWIGRINPNNGDTSYNQKFKGKATLTVDRSSSTAHMEVRSLTSEDSAVYYCARTGFGYWGQGTLVTVSA
VL: DIVITQTPASLAVSLGQRATISCRASESINYYGTNLLQWYQQKPGQPPKLLIYAASNVESGVPARFSGSGSGTDFSLNIHPVEEDDIAMYFCQQSRKVPFTFGSGTRLEIK
notes: also called mAb F29-40

What was measured:
[1] = target: T1, BoNT/B GST-fusion peptide fragment L1 (Clostridium botulinum strain Okra / …, UniProt B1INP5); assay: ELISA; conditions: one partner purified
T1 construct: not shown: GST, N-terminal, kept

[2] = target: T2, BoNT/B GST-fusion peptide fragment L2 (Clostridium botulinum strain Okra / …, UniProt B1INP5); assay: ELISA; conditions: one partner purified
T2 construct: Cloned in pGS-21a; not shown: GST, N-terminal, kept

[3] = target: T3, BoNT/B GST-fusion peptide fragment H1 (Clostridium botulinum strain Okra / …, UniProt B1INP5); assay: ELISA; conditions: one partner purified
T3 construct: not shown: GST, N-terminal, kept

[4] = target: T4, BoNT/B GST-fusion peptide fragment H2 (Clostridium botulinum strain Okra / …, UniProt B1INP5); assay: ELISA; conditions: one partner purified
T4 construct: not shown: GST, N-terminal, kept

[5] = target: T5, BoNT/B GST-fusion peptide fragment H3 (Clostridium botulinum strain Okra / …, UniProt B1INP5); assay: ELISA; conditions: one partner purified
T5 construct: Cloned in pGS-21a; not shown: GST, N-terminal, kept

[6] = target: T6, BoNT/B GST-fusion peptide fragment H4 (Clostridium botulinum strain Okra / …, UniProt B1INP5); assay: ELISA; conditions: one partner purified
T6 construct: not shown: GST, N-terminal, kept

[7] = target: T7, Botulinum neurotoxin serotype C (Clostridium botulinum, UniProt P18640); assay: ELISA; conditions: both partners purified
T7 construct: source: bought: Metabiologics

[8] = target: T8, Botulinum neurotoxin serotype D (Clostridium botulinum, UniProt P19321); assay: ELISA; conditions: both partners purified
T8 construct: source: bought: Metabiologics

[9] = target: T9, BoNT/B GST-fusion peptide fragment Lc (Clostridium botulinum Okra / Type B1, UniProt B1INP5); assay: ELISA; conditions: one partner purified
T9 construct: not shown: GST, N-terminal, kept

[10] = target: T10, BoNT/B GST-fusion peptide fragment Hc (Clostridium botulinum strain Okra / …, UniProt B1INP5); assay: ELISA; conditions: one partner purified
T10 construct: Cloned in pGS-21a; not shown: GST, N-terminal, kept

[11] = target: T11, BoNT/B GST-fusion peptide fragment H5 (Clostridium botulinum Okra / Type B1, UniProt B1INP5); assay: ELISA; conditions: one partner purified
T11 construct: Cloned in pGS-21a; not shown: GST, N-terminal, kept

[12] = target: T5, BoNT/B GST-fusion peptide fragment H3; assay: ELISA; conditions: one partner purified; remark: listed apart in the source
[13] = target: BoNT/B heavy chain (band of the reduced holotoxin) (Clostridium botulinum Okra / Type B1, UniProt B1INP5); assay: far-Western, overlay or dot blot; conditions: both partners purified

Row | Binder | binding result [1] | binding result [2] | binding result [3] | binding result [4] | binding result [5] | binding result [6] | binding result [7] | binding result [8] | binding result [9] | binding result [10] | binding result [11] | binding result [12] | binding result [13]
1 | B1 | no binding | no binding | no binding | no binding | no binding | no binding | no binding (tested: 10 µg/mL) | no binding (tested: 10 µg/mL) | no binding | binds | binds |  | 
2 | B2 | no binding | no binding | no binding | no binding |  | no binding | no binding (tested: 10 µg/mL) | no binding (tested: 10 µg/mL) | no binding | binds | binds | binds | binds
